Measurements: publication PMC3712912, “Dynactin Subunit p150^Glued Is a Neuron-Specific Anti-Catastrophe Factor” (PLoS Biology, 2013)
Changes are numbered by the printed parent chain. In names and notes the source's numbering stands.

Key:
[1] = biological target: Taxol-stabilized microtubules (polymerized bovine brain tubulin) (bovine) (UniProt Q6B856); test: co-sedimentation; 0.4 µM dimeric constructs with increasing concentrations of Taxol-stabilized microtubules, 37 °C 20 min, centrifuged at 100 k rpm; supernatant and pellet by SDS-PAGE and densitometry
[2] = biological target: tubulin (soluble tubulin dimers, bovine brain) (bovine) (UniProt Q6B856); test: SEC; polypeptides incubated at the indicated molar ratio with 30 µM tubulin 10 min on ice; Superdex 200 10/300 GL, BRB20 pH 7.1 with 125 mM KCl and 10 mM imidazole (or increasing KCl, Figure 3C), eluted at 4 °C
[3] = biological target: tubulin (soluble tubulin dimers, bovine brain) (bovine) (UniProt Q6B856)
[4] = biological target: T1, Taxol-stabilized microtubules (polymerized bovine brain tubulin) (bovine, UniProt Q6B856 1-445); test: co-sedimentation; 0.1 µM C-terminal GFP-tagged constructs with increasing concentrations of Taxol-stabilized microtubules, 37 °C 20 min, centrifuged; depletion from the supernatant monitored by fluorimetry; conditions: both partners purified
[5] = biological target: T1, Taxol-stabilized microtubules …; test: co-sedimentation; 0.4 µM dimeric constructs with increasing concentrations of Taxol-stabilized microtubules, 37 °C 20 min, centrifuged at 100 k rpm; supernatant and pellet by SDS-PAGE and densitometry; conditions: both partners purified
[6] = biological target: the molecule itself; test: cross-linking; 0.5 µM dimeric constructs in BRB20 with 125 mM NaCl and 1 mM DTT, 0.5% glutaraldehyde on ice for 2 h; SDS-PAGE and colloidal Coomassie staining

“Δ5–7 Nt-GCN4 (p150Glued amino acids 1–210 deleted for exons 5–7, GCN4 coiled-coil, linker, C-terminal 6×-His) (from UniProt Q14203-1 1-210) (domain or fragment)” gave a Kd [1] of 470 nM.

Work on “p150 Nt-GCN4 (human p150Glued amino acids 1–210, GCN4 coiled-coil, linker, C-terminal 6×-His) (from UniProt Q14203-1 1-210) (domain or fragment)” yielded a stoichiometry N (p150∶tubulin molar ratio) [2] of 1, a catastrophe frequency, TIRF elongation assay from GMPCPP seeds, 100–200 nM p150 Nt-GCN4 (fold reduction) [3] of 4 fold and a microtubule polymerization rate, TIRF elongation assay from GMPCPP seeds, 100–200 nM p150 Nt-GCN4 [3] of 2 fold.

B1: p150 Nt with C-terminal EGFP-6×-His (domain or fragment, human)
chain: MAQSKRHVYSRTPSGSRMSAEASARPLRVGSRVEVIGKGHRGTVAYVGATLFATGKWVGVILDEAKGKNDGTVQGRKYFTCDEGHGIFVRQSQIQVFEDGADTTSPETPDSSASKVLKREGTDTTAKTSKLRGLKPKKAPTARKTTTRRPKPTRPASTGVAGASSSLGPSGSASAGELSSSEPSTPAQTPLAAPIIPTPVLTSPGAVPPLAAAADPPVAT
notes: p150Glued (DCTN1), human, amino acids 1-210, NM_004082.4; short linker, followed by EGFP-6×-His; also called C-terminal GFP-tagged monomeric construct; source: Rosetta E. coli, purified; not shown: EGFP, C-terminal, kept
B1 showed a Kd [4] of 890 nM.

B2: p150 Nt-GCN4 (human p150Glued amino acids 1–210, GCN4 coiled-coil, linker, C-terminal 6×-His) (domain or fragment)
chain: MAQSKRHVYSRTPSGSRMSAEASARPLRVGSRVEVIGKGHRGTVAYVGATLFATGKWVGVILDEAKGKNDGTVQGRKYFTCDEGHGIFVRQSQIQVFEDGADTTSPETPDSSASKVLKREGTDTTAKTSKLRGLKPKKAPTARKTTTRRPKPTRPASTGVAGASSSLGPSGSASAGELSSSEPSTPAQTPLAAPIIPTPVLTSPGAVPPLVMKQLEDKVEELLSKNYHLENEVARLKKLVGEAAAADPPVAT
notes: p150Glued (DCTN1), human, amino acids 1-210, NM_004082.4; holds the CAP-Gly and basic domains; short linker before the C-terminal 6×-His tag; Dimer through the GCN4 coiled-coil that replaces CC1 of p150Glued; vector pET-29a; also called dimeric p150 Nt-GCN4; p150 Nt-GCN4-His; source: Rosetta E. coli, purified (Ni Sepharose, Mono S, Superdex 200); not shown: His6, C-terminal, kept
With B2 the Kd [5] was 290 nM and the binding result [6] was “binds”.

B3: p150 Nt-GCN4 with C-terminal EGFP-6×-His (domain or fragment)
chain: B2 chain
notes: p150Glued (DCTN1), human, amino acids 1-210, NM_004082.4; short linker, followed by EGFP-6×-His; also called C-terminal GFP-tagged dimeric construct; source: Rosetta E. coli, purified; not shown: EGFP, C-terminal, kept
Work on B3 yielded a Kd [4] of 340 nM.

B4: Q74P Nt-GCN4 (p150 Nt-GCN4 with the Perry syndrome mutation Q74P) (domain or fragment)
chain: B2 chain with Q74P
notes: p150Glued (DCTN1), human, amino acids 1-210, NM_004082.4, with the disease mutation Q74P; short linker before the C-terminal 6×-His tag; also called Q74P p150 Nt-GCN4; source: Rosetta E. coli, purified immediately before experimentation with a final gel filtration step
B4: binds [6].

B5: p135 Nt-GCN4 (MMRQ, p150Glued amino acids 139–210, GCN4 coiled-coil, linker, C-terminal 6×-His) (domain or fragment)
chain: MMRQAPTARKTTTRRPKPTRPASTGVAGASSSLGPSGSASAGELSSSEPSTPAQTPLAAPIIPTPVLTSPGAVPPLVMKQLEDKVEELLSKNYHLENEVARLKKLVGEAAAADPPVAT
notes: N-terminal MMRQ replicating the endogenous expressed p135 spliceform of p150Glued (DCTN1); p150Glued (DCTN1), human, amino acids 139-210 of p150Glued, NM_004082.4; lacks the CAP-Gly domain and exon 5; short linker before the C-terminal 6×-His tag; Recapitulates the neuronally enriched p135 splice form; also called p135 dimer; source: Rosetta E. coli, purified (Ni Sepharose, Mono S, Superdex 200); …
B5: binds [6].
